B1: Table S3 B row 1694 (dsDNA)
DNA 1: CTGCAAACCACAAAACACCTGACTGCTACGTAAGAT
DNA 2: ATCTTACGTAGCAGTCAGGTGTTTTGTGGTTTGCAG
B2: Table S3 B row 1550 (dsDNA)
DNA 1: TGACCTTTGTGGTTTGGTCAGCAAGTGGGGTACTGG
DNA 2: CCAGTACCCCACTTGCTGACCAAACCACAAAGGTCA
B3: Table S3 B row 601 (dsDNA)
DNA 1: GGTTCCTTGCGGTTCGCGGCGTGCCGGGCGTGACAA
DNA 2: TTGTCACGCCCGGCACGCCGCGAACCGCAAGGAACC
B4: Table S3 B row 1899 (dsDNA)
DNA 1: CCGCCGCGACCGCAGGCCTCCGTTCAGCCGGGGTAA
DNA 2: TTACCCCGGCTGAACGGAGGCCTGCGGTCGCGGCGG
B5: Table S3 B row 2175 (dsDNA)
DNA 1: AAATCAAAACCACAATCAGATACCACTTGCTGCCCA
DNA 2: TGGGCAGCAAGTGGTATCTGATTGTGGTTTTGATTT
B6: Table S3 B row 1255 (dsDNA)
DNA 1: GTCCAACCGCAGCCAGGCAAGCACACCCTGCCCCAC
DNA 2: GTGGGGCAGGGTGTGCTTGCCTGGCTGCGGTTGGAC
B7: Table S3 B row 1104 (dsDNA)
DNA 1: TTTCTGTGGTTTGGTTTCTATAGAGACACTTGCTGT
DNA 2: ACAGCAAGTGTCTCTATAGAAACCAAACCACAGAAA
B8: Table S3 B row 3681 (dsDNA)
DNA 1: CGGCACCCTCCTTCGTCCCTGCCAACCGCCTCCACC
DNA 2: GGTGGAGGCGGTTGGCAGGGACGAAGGAGGGTGCCG
B9: Table S3 B row 3061 (dsDNA)
DNA 1: CCTCTGCCCAACCACAATTTTCCCTTCGTCAGCCTT
DNA 2: AAGGCTGACGAAGGGAAAATTGTGGTTGGGCAGAGG
B10: Table S3 B row 2477 (dsDNA)
DNA 1: GGTGCGGTTAAGGCGAGGCTCCTTCTTTACTGTGAC
DNA 2: GTCACAGTAAAGAAGGAGCCTCGCCTTAACCGCACC
B11: Table S3 B row 2093 (dsDNA)
DNA 1: GTTAACCGCACTGCCGCTGGCTGGGTGTCCGCGGCA
DNA 2: TGCCGCGGACACCCAGCCAGCGGCAGTGCGGTTAAC
B12: Table S3 B row 3404 (dsDNA)
DNA 1: TTGGTCTTGTGGTTTTGCAAGGCAGGGGTGATATAT
DNA 2: ATATATCACCCCTGCCTTGCAAAACCACAAGACCAA
B13: Table S3 B row 1633 (dsDNA)
DNA 1: CCTTTACGTCCTTTTACTTCTAACCACAGAATTAAA
DNA 2: TTTAATTCTGTGGTTAGAAGTAAAAGGACGTAAAGG
B14: Table S3 B row 207 (dsDNA)
DNA 1: GGCTCAAAACCACAGAGAAGCCTCCTATAGTGGGAT
DNA 2: ATCCCACTATAGGAGGCTTCTCTGTGGTTTTGAGCC
B15: Table S3 B row 1205 (dsDNA)
DNA 1: TCAGCCTGTGGTTTCTGAAGACCTCCTCGAAGTCAT
DNA 2: ATGACTTCGAGGAGGTCTTCAGAAACCACAGGCTGA
B16: Table S3 B row 2134 (dsDNA)
DNA 1: CACCTTGTGGTTTCTCTGAGTGTCACACCTCCCCAG
DNA 2: CTGGGGAGGTGTGACACTCAGAGAAACCACAAGGTG
B17: Table S3 B row 2108 (dsDNA)
DNA 1: GCTCGTTTGTGGTTACTGACACCCGGCCTTCATTTC
DNA 2: GAAATGAAGGCCGGGTGTCAGTAACCACAAACGAGC
B18: Table S3 B row 2442 (dsDNA)
DNA 1: GTGAAAAAGTCTGTGGTTTTGTTTCTTGAACACCTG
DNA 2: CAGGTGTTCAAGAAACAAAACCACAGACTTTTTCAC
B19: Table S3 B row 1736 (dsDNA)
DNA 1: CTCCTGTGGTTTCTAAACTGTCAGCATGTTGGCTTG
DNA 2: CAAGCCAACATGCTGACAGTTTAGAAACCACAGGAG
B20: Table S3 B row 2945 (dsDNA)
DNA 1: GCTCCTCACTGCGGTCACAGCCACATGCTGCAGAGC
DNA 2: GCTCTGCAGCATGTGGCTGTGACCGCAGTGAGGAGC
B21: Table S3 B row 1212 (dsDNA)
DNA 1: GCTTTTCTGTGGTTTTTCTCACACGGGAATTGAGAG
DNA 2: CTCTCAATTCCCGTGTGAGAAAAACCACAGAAAAGC
B22: Table S3 B row 871 (dsDNA)
DNA 1: ATGACCGATCAACCGCAAAGGCCGGGAATGCGTCAG
DNA 2: CTGACGCATTCCCGGCCTTTGCGGTTGATCGGTCAT
B23: Table S3 B row 2983 (dsDNA)
DNA 1: ACTCTGTGGTTTCATTGCCTGCCCGTAAATGCAGCT
DNA 2: AGCTGCATTTACGGGCAGGCAATGAAACCACAGAGT
B24: Table S3 B row 518 (dsDNA)
DNA 1: GACCCACTGCGGTCATGCTGCTCCCTGCCCAACCCG
DNA 2: CGGGTTGGGCAGGGAGCAGCATGACCGCAGTGGGTC
B25: Table S3 B row 1223 (dsDNA)
DNA 1: ACTGCTCAAACCACAAACGATAGCAGCAAAGGCCTG
DNA 2: CAGGCCTTTGCTGCTATCGTTTGTGGTTTGAGCAGT
B26: Table S3 B row 2560 (dsDNA)
DNA 1: TGAGGTTGTGGTTAGGCAGGACGAAGCCGTTTGTAG
DNA 2: CTACAAACGGCTTCGTCCTGCCTAACCACAACCTCA
B27: Table S3 B row 730 (dsDNA)
DNA 1: GTGCCTGACCACAAACCAACATTGCCTGTCTCAATT
DNA 2: AATTGAGACAGGCAATGTTGGTTTGTGGTCAGGCAC
B28: Table S3 B row 3940 (dsDNA)
DNA 1: TCTCTAGTTCCCATTATTTCTGTGGTTAATTTCACC
DNA 2: GGTGAAATTAACCACAGAAATAATGGGAACTAGAGA
B29: Table S3 B row 1412 (dsDNA)
DNA 1: GTCGCCCCCACCGCAAGTATTTCAGCTTCCCTCCGC
DNA 2: GCGGAGGGAAGCTGAAATACTTGCGGTGGGGGCGAC
B30: Table S3 B row 586 (dsDNA)
DNA 1: CTTGTCCCTTGTGGTTTTTTGCATTTGCTGTTCCCT
DNA 2: AGGGAACAGCAAATGCAAAAAACCACAAGGGACAAG
B31: Table S3 B row 2650 (dsDNA)
DNA 1: CTCCTGGGCTTGTGGTTAGAGCATCATGCAGCAAGG
DNA 2: CCTTGCTGCATGATGCTCTAACCACAAGCCCAGGAG
B32: Table S3 B row 875 (dsDNA)
DNA 1: CTCCTGGGCTTGTGGTTAGAACATGCTGCAGCAAAG
DNA 2: CTTTGCTGCAGCATGTTCTAACCACAAGCCCAGGAG

Biological target: RUNX1 (Homo sapiens, UniProt Q01196)
Test: gcPBM; 2 nM RUNX1
Conditions: tags: N-terminal GST (pDEST15), kept (PMC6008103); label: surface-attached array probe

RUNX1, sequence (Q01196 whole entry): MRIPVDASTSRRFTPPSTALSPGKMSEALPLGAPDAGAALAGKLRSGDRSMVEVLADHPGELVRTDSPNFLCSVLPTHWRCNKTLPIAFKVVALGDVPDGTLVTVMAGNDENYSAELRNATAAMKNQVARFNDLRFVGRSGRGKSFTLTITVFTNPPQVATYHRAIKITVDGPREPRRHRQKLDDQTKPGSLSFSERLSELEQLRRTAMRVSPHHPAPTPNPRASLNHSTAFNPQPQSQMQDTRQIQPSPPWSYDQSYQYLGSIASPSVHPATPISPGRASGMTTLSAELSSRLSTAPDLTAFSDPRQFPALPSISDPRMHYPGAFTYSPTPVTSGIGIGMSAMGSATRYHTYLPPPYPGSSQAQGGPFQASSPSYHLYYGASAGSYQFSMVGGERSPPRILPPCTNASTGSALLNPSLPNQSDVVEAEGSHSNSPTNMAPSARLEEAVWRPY

Binder | binding signal
B1 | 9300 PBM fluorescence, median of replicate spots
B2 | 9070 PBM fluorescence, median of replicate spots
B3 | 5880 PBM fluorescence, median of replicate spots
B4 | 6120 PBM fluorescence, median of replicate spots
B5 | 6180 PBM fluorescence, median of replicate spots
B6 | 8530 PBM fluorescence, median of replicate spots
B7 | 8510 PBM fluorescence, median of replicate spots
B8 | 5850 PBM fluorescence, median of replicate spots
B9 | 6030 PBM fluorescence, median of replicate spots
B10 | 6190 PBM fluorescence, median of replicate spots
B11 | 6840 PBM fluorescence, median of replicate spots
B12 | 8240 PBM fluorescence, median of replicate spots
B13 | 6510 PBM fluorescence, median of replicate spots
B14 | 5720 PBM fluorescence, median of replicate spots
B15 | 6080 PBM fluorescence, median of replicate spots
B16 | 6600 PBM fluorescence, median of replicate spots

Binder | binding signal
B17 | 8520 PBM fluorescence, median of replicate spots
B18 | 9320 PBM fluorescence, median of replicate spots
B19 | 6800 PBM fluorescence, median of replicate spots
B20 | 6290 PBM fluorescence, median of replicate spots
B21 | 8950 PBM fluorescence, median of replicate spots
B22 | 7280 PBM fluorescence, median of replicate spots
B23 | 5930 PBM fluorescence, median of replicate spots
B24 | 6470 PBM fluorescence, median of replicate spots
B25 | 6810 PBM fluorescence, median of replicate spots
B26 | 7390 PBM fluorescence, median of replicate spots
B27 | 6950 PBM fluorescence, median of replicate spots
B28 | 5800 PBM fluorescence, median of replicate spots
B29 | 6050 PBM fluorescence, median of replicate spots
B30 | 7790 PBM fluorescence, median of replicate spots
B31 | 6170 PBM fluorescence, median of replicate spots
B32 | 6070 PBM fluorescence, median of replicate spots

Source: article PMC10681739, “High-throughput data and modeling reveal insights into the mechanisms of cooperative DNA-binding by transcription factor proteins”
